T1: human DLL3 endogenously expressed on SHP77 and NCI-H82 cells (human, UniProt Q9NYJ7 27-618)
T1 construct: whole, on cells; cells endogenously expressing DLL3; also called SHP77 cells; SHP-77 cells
T1 sequence (looked up): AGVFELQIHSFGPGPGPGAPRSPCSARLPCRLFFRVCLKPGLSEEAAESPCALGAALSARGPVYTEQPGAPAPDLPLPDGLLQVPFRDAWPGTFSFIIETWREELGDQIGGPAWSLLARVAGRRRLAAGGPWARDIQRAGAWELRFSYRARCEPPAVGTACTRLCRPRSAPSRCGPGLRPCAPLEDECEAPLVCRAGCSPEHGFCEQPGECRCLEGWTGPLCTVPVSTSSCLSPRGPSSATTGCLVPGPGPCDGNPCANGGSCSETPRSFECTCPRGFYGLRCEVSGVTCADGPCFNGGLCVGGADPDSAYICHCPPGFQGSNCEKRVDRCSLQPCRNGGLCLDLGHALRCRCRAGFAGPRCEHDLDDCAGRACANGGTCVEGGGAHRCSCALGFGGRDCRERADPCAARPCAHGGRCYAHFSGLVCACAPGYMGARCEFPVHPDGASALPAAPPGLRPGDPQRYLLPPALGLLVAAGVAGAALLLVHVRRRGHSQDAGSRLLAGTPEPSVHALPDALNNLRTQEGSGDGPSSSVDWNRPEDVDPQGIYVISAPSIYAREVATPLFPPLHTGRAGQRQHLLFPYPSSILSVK

T2: mouse DLL3 on CHO K1-mDLL3 cells (mouse, UniProt O88516 33-490)
T2 construct: also called mouse DLL3 recombinant cell line
T2 sequence: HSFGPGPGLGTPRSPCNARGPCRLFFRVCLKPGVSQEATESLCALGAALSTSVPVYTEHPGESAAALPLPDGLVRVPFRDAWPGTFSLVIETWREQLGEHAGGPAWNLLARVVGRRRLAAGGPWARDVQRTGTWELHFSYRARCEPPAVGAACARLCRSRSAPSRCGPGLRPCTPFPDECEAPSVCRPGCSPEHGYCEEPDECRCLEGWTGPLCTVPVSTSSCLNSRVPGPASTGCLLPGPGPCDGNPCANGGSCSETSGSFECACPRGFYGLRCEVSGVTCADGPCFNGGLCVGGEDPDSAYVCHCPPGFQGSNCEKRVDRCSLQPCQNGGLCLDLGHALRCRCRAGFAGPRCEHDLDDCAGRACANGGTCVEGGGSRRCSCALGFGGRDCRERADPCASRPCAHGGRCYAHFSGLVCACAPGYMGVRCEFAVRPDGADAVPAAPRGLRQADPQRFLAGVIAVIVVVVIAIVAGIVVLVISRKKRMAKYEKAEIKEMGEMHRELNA

T3: human DLL3-his protein (human, UniProt Q9NYJ7 27-492)
T3 construct: also called human DLL3 protein; DLL3 antigen protein; not shown: His tag
T3 sequence: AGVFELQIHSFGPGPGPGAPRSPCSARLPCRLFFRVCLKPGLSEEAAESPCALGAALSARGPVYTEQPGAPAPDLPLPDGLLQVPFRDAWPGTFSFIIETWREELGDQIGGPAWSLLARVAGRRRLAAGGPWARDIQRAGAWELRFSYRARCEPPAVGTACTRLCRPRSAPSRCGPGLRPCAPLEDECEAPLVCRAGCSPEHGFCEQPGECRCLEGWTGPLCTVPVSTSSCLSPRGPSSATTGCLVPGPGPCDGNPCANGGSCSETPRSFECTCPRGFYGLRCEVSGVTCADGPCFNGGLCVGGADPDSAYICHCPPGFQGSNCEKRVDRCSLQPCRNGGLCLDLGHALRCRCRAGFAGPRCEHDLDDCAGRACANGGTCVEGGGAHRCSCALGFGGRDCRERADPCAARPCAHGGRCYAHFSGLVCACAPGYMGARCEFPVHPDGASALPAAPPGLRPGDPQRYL

T4: monkey DLL3 on CHO K1-cyno DLL3 cells (cynomolgus monkey)
T4 construct: also called monkey DLL3 recombinant cell line
T4 chain: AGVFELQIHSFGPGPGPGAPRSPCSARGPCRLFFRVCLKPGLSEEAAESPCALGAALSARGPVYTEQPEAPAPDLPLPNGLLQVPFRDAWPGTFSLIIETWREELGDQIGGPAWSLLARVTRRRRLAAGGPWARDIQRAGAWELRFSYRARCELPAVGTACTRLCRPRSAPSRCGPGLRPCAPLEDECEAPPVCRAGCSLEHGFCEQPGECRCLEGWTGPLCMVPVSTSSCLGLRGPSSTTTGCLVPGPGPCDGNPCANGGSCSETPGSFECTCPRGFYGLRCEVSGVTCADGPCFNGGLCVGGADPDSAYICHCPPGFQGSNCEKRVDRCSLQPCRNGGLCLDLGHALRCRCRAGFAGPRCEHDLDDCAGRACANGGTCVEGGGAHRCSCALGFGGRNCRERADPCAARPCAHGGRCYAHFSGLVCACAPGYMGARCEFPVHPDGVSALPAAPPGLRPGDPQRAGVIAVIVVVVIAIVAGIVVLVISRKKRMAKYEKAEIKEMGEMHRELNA

T5: human DLL3 on CHO-K1 hDLL3 cells (human, UniProt Q9NYJ7 27-492)
T5 construct: also called human DLL3 recombinant cell line
T5 sequence: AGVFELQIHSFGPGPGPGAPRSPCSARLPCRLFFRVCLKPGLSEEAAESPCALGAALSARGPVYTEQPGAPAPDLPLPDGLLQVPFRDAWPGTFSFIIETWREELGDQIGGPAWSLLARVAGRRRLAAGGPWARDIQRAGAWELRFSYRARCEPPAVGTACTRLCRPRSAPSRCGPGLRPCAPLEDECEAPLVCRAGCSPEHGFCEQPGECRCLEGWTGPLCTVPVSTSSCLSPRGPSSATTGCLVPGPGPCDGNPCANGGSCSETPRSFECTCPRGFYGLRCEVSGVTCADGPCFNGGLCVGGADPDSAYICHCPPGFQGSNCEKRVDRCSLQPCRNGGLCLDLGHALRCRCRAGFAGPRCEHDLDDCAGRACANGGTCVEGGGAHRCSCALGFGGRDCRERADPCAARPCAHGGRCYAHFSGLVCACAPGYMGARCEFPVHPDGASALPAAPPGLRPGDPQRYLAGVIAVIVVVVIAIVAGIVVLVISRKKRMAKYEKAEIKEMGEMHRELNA


What was measured:
[1] = target: T1, human DLL3 endogenously expressed on …; experiment: FACS, SHP77 and NCI-H82 cells
[2] = target: T2, mouse DLL3 on CHO K1-mDLL3 cells; experiment: FACS, CHO K1-mDLL3 cells
human DLL3-his protein = target: T3, human DLL3-his protein; experiment: ELISA
[3] = target: T4, monkey DLL3 on CHO K1-cyno DLL3 cells; experiment: FACS, CHO K1-cyno DLL3 cells
[4] = target: T5, human DLL3 on CHO-K1 hDLL3 cells; experiment: FACS, CHO-K1 hDLL3 cells

Row | binding result [1] | binding result [2] | binding result (human DLL3-his protein) | binding result [3] | binding result [4] | Binder
1 | binds | binds | binds | binds | binds | Hab015VL4VH5a-hFc (Fc fusion, humanized mab015, VL-linker-VH-human IgG1 Fc; also called Hab015L4H5a; not shown: linker; human IgG1 Fc fragment) scFv (part 1 of 2): NIVLTQSPATLSLSPGERATLSCKASENVGTYVSWFQQKPGQSPRLLIYGASNRYTGIPARFSGSGSGTDFTLTISSLEPEDFAVYYCGQFYSFPSTFGGGTKVEIK scFv (part 2 of 2): EVQLVESGGGLVKPGGSLRLSCVASGITFSNFWMNWVRQAPGKGLEWVGQIRLKSDDYATHYAESVKGRFTISREDSKNTVYLQMNSLKTEDTAVYYCTTGYYFDYWGQGTTVTVSS
2 | binds | binds | binds | binds | binds | Hab015VL4VH1b-hFc (Fc fusion, humanized mab015, VL-linker-VH-human IgG1 Fc; also called Hab015L4H1b; not shown: linker; human IgG1 Fc fragment) scFv (part 1 of 2): NIVLTQSPATLSLSPGERATLSCKASENVGTYVSWFQQKPGQSPRLLIYGASNRYTGIPARFSGSGSGTDFTLTISSLEPEDFAVYYCGQFYSFPSTFGGGTKVEIK scFv (part 2 of 2): EVQLVESGGGLVKPGGSLRLSCAASGITFSNFWMNWVRQAPGKGLEWVGQIRLKSEDYATHYAESVKGRFTISREDSKNTVYLQMNSLKTEDTAVYYCTTGYYFDYWGQGTTVTVSS
3 | binds | no binding | binds | binds | binds | Hab008L1H2a-hFc (Fc fusion, humanized mab008, VL-linker-VH-human IgG1 Fc; also called Hab008 humanized molecule; not shown: linker; human IgG1 Fc fragment) scFv (part 1 of 2): DIQMTQSPSSLSASVGDRVTITCKASQNVGTAVAWYQQKPGKSPKLLIFSASIRYTGVPSRFSGSGSGTDFTLTISSLQPEDFATYYCQQYSSSPYTFGGGTKVEIK scFv (part 2 of 2): EVQLVQSGAEVKKPGASVKVSCKASGYTFTDYYMNWVRQAPGQRLEWMGIINPYNSGTSYNQKFRGRVTLTVDKSASTAYMELSSLRSEDTAVYYCSRYDYDYDVEGAMDYWGQGTTVTVSS

Second part, the binder before the results:

Row | Binder | binding result [1] | binding result [2] | binding result (human DLL3-his protein) | binding result [3] | binding result [4]
4 | Hab014VL3VH1-hFc (Fc fusion, humanized mab014, VL-linker-VH-human IgG1 Fc; not shown: linker; human IgG1 Fc fragment) scFv (part 1 of 2): DIVMTQSPDSLAVSLGERATINCKASEDIYNRLAWYQQKPGQTPKLLISGATSLETGVPDRFSGSGSGKDFTLTISSLQAEDVAVYYCQQYWSLPWTFGGGTKVEIK scFv (part 2 of 2): EVQLVQSGAEVKKPGASVKVSCKASGYTFTDYYMNWVRQAPGQRLEWMGDINPNHGDTGYNQKFTGRVTITVDKSASTAYMELSSLRSEDTAVYYCARNFFYYGTTYGWYFDVWGQGTTVTVSS | binds | binds | binds | binds | binds
5 | Hab015VL4VH1a-hFc (Fc fusion, humanized mab015, VL-linker-VH-human IgG1 Fc; also called Hab015L4H1a; not shown: linker; human IgG1 Fc fragment) scFv (part 1 of 2): NIVLTQSPATLSLSPGERATLSCKASENVGTYVSWFQQKPGQSPRLLIYGASNRYTGIPARFSGSGSGTDFTLTISSLEPEDFAVYYCGQFYSFPSTFGGGTKVEIK scFv (part 2 of 2): EVQLVESGGGLVKPGGSLRLSCAASGITFSNFWMNWVRQAPGKGLEWVGQIRLKSDDYATHYAESVKGRFTISREDSKNTVYLQMNSLKTEDTAVYYCTTGYYFDYWGQGTTVTVSS | binds | binds | binds | binds | binds
6 | Hab015VL5VH1a-hFc (Fc fusion, humanized mab015, VL-linker-VH-human IgG1 Fc; also called Hab015L5H1a; not shown: linker; human IgG1 Fc fragment) scFv (part 1 of 2): NIQMTQSPSSLSASVGDRVTITCKASENVGTYVSWYQQKPGKSPKLLIYGASNRYTGVPSRFSGSGSGTDFTLTISSLQPEDFATYYCGQFYSFPSTFGGGTKVEIK scFv (part 2 of 2): EVQLVESGGGLVKPGGSLRLSCAASGITFSNFWMNWVRQAPGKGLEWVGQIRLKSDDYATHYAESVKGRFTISREDSKNTVYLQMNSLKTEDTAVYYCTTGYYFDYWGQGTTVTVSS | binds | binds | binds | binds | binds
7 | Hab015VL5VH5a-hFc (Fc fusion, humanized mab015, VL-linker-VH-human IgG1 Fc; also called Hab015L5H5a; not shown: linker; human IgG1 Fc fragment) scFv (part 1 of 2): NIQMTQSPSSLSASVGDRVTITCKASENVGTYVSWYQQKPGKSPKLLIYGASNRYTGVPSRFSGSGSGTDFTLTISSLQPEDFATYYCGQFYSFPSTFGGGTKVEIK scFv (part 2 of 2): EVQLVESGGGLVKPGGSLRLSCVASGITFSNFWMNWVRQAPGKGLEWVGQIRLKSDDYATHYAESVKGRFTISREDSKNTVYLQMNSLKTEDTAVYYCTTGYYFDYWGQGTTVTVSS | binds | binds | binds | binds | binds
8 | Hab015VL5VH6a-hFc (Fc fusion, humanized mab015, VL-linker-VH-human IgG1 Fc; also called Hab015L5H6a; not shown: linker; human IgG1 Fc fragment) scFv (part 1 of 2): NIQMTQSPSSLSASVGDRVTITCKASENVGTYVSWYQQKPGKSPKLLIYGASNRYTGVPSRFSGSGSGTDFTLTISSLQPEDFATYYCGQFYSFPSTFGGGTKVEIK scFv (part 2 of 2): EVQLVESGGGLVKPGGSLRLSCAASGITFSNFWMNWVRQAPEKGLEWVGQIRLKSDDYATHYAESVKGRFTISREDSKNTVYLQMNSLKTEDTAVYYCTTGYYFDYWGQGTTVTVSS | binds | binds | binds | binds | binds
9 | Hab015VL4VH6a-hFc (Fc fusion, humanized mab015, VL-linker-VH-human IgG1 Fc; also called Hab015L4H6a; not shown: linker; human IgG1 Fc fragment) scFv (part 1 of 2): NIVLTQSPATLSLSPGERATLSCKASENVGTYVSWFQQKPGQSPRLLIYGASNRYTGIPARFSGSGSGTDFTLTISSLEPEDFAVYYCGQFYSFPSTFGGGTKVEIK scFv (part 2 of 2): EVQLVESGGGLVKPGGSLRLSCAASGITFSNFWMNWVRQAPEKGLEWVGQIRLKSDDYATHYAESVKGRFTISREDSKNTVYLQMNSLKTEDTAVYYCTTGYYFDYWGQGTTVTVSS | binds | binds | binds | binds | binds

Source: EP4786492A1 (Simcere Zaiming Pharmaceutical Co., Ltd., dated 2026)
